Measurements taken from US20230242635A1 (published 2023).

B1: caninized anti-IL31 antibody 34D03 (mAb1), canine IgGB (65), wild-type (antibody)
heavy: EVQLVESGGDLVKPGGSLRLSCVASGFTFSNYGMSWVRQAPGKGLQWVATISYGGSYTYYPDNIKGRFTISRDNAKNTLYLQMNSLRAEDTAMYYCVRGYGYDTMDYWGQGTLVTVSSASTTAPSVFPLAPSCGSTSGSTVALACLVSGYFPEPVTVSWNSGSLTSGVHTFPSVLQSSGLYSLSSMVTVPSSRWPSETFTCNVAHPASKTKVDKPVPKRENGRVPRPPDCPKCPAPEMLGGPSVFIFPPKPKDTLLIARTPEVTCVVVDLDPEDPEVQISWFVDGKQMQTAKTQPREEQFNGTYRVVSVLPIGHQDWLKGKQFTCKVNNKALPSPIERTISKARGQAHQPSVYVLPPSREELSKNTVSLTCLIKDFFPPDIDVEWQSNGQQEPESKYRTTPPQLDEDGSYFLYSKLSVDKSRWQRGDTFICAVMHEALHNHYTQESLSHSPGK
VL: EIVMTQSPASLSLSQEEKVTITCKASQSVSFAGTGLMHWYQQKPGQAPKLLIYRASNLEAGVPSRFSGSGSGTDFSFTISSLEPEDVAVYYCQQSREYPWTFGQGTKLEIK
B2: caninized anti-IL31 antibody 34D03 (mAb1), canine IgGB (65), N434H (antibody)
heavy: EVQLVESGGDLVKPGGSLRLSCVASGFTFSNYGMSWVRQAPGKGLQWVATISYGGSYTYYPDNIKGRFTISRDNAKNTLYLQMNSLRAEDTAMYYCVRGYGYDTMDYWGQGTLVTVSSASTTAPSVFPLAPSCGSTSGSTVALACLVSGYFPEPVTVSWNSGSLTSGVHTFPSVLQSSGLYSLSSMVTVPSSRWPSETFTCNVAHPASKTKVDKPVPKRENGRVPRPPDCPKCPAPEMLGGPSVFIFPPKPKDTLLIARTPEVTCVVVDLDPEDPEVQISWFVDGKQMQTAKTQPREEQFNGTYRVVSVLPIGHQDWLKGKQFTCKVNNKALPSPIERTISKARGQAHQPSVYVLPPSREELSKNTVSLTCLIKDFFPPDIDVEWQSNGQQEPESKYRTTPPQLDEDGSYFLYSKLSVDKSRWQRGDTFICAVMHEALHHHYTQESLSHSPGK
VL: EIVMTQSPASLSLSQEEKVTITCKASQSVSFAGTGLMHWYQQKPGQAPKLLIYRASNLEAGVPSRFSGSGSGTDFSFTISSLEPEDVAVYYCQQSREYPWTFGQGTKLEIK

How the values were obtained:
[1] = molecular target: canine FcRn complex (FcRn-α subunit and β-microglobulin), biotin labeled by BirA, captured on SA chip (Example 5) (canine); assay: SPR (Biacore), biotinylated FcRn captured on SA chip, IgG flowed, pH 7.4, 15 C
[2] = molecular target: IL-31 (target protein of mAb1, immobilized); assay: SPR (Biacore T200), target amine-coupled on CM5, antibody flowed, 15 C, 1:1 model
[3] = molecular target: IL-31 (target protein of mAb1, immobilized); assay: cell-based or functional assay
[4] = molecular target: canine FcRn complex (FcRn-α subunit and β-microglobulin), biotin labeled by BirA, captured on SA chip (Example 5) (canine); assay: SPR (Biacore), biotinylated FcRn captured on SA chip, IgG flowed, pH 6, 15 C
[5] = molecular target: canine FcRn complex (FcRn-α subunit and β-microglobulin) with c-terminal 6x His + BAP tag, amine-immobilized (Example 3) (canine); assay: SPR (Biacore), FcRn amine-coupled on CM5, IgG flowed, pH 6, 15 C
[6] = molecular target: canine FcRn complex (FcRn-α subunit and β-microglobulin) with c-terminal 6x His + BAP tag, amine-immobilized (Example 3) (canine); assay: SPR (Biacore), FcRn amine-coupled on CM5, IgG flowed, pH 7.2, 15 C

| Binder | Kd [1] | Kd [2] | IC50 (cell based potency assay) [3] | Kd [4] | Kd [5] | Kd [6] |
| --- | --- | --- | --- | --- | --- | --- |
| B1 | 18700 nM | 0.483 nM | 1.1 nM | 19.9 nM | 15 to 24.4 nM | – |
| B2 | – | 0.373 nM | 0.99 nM | 6.45 nM | 0.7 to 1.3 nM | 5000 nM |
